Laboratory results from the supplement of paper PMC10567573.

B1: FAM50A (parent)
chain: HIFPASRWEPYDPEKKWDKYTIR

Variants of: B1
Experiment: protein stability index of a GFP-peptide fusion (GPS, HEK-293T) (PSI 1-6); higher = more stable
Conditions: c terminus: native
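Also: lentivirally expressed fusions sorted by FACS into six bins by GFP to DsRed ratio, PSI derived from sequencing read proportions per bin multiplied by bin number.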

Protein stability index, by site and new letter:
T21: I 1.74; C 1.97; Q 2.18; F 2.06; K 1.93; S 1.89; P 2.36; G 2.38
D18: G 2.28; M 1.92; L 2.08; T 2.37; F 1.55; N 4.48; K 3.01; C 2.61; A 1.96
F3: C 2.54; M 1.74; V 2.31; A 3.12; E 2.75; Q 3.31
E9: S 2.76; D 1.85; R 2.43; G 1.72; C 3.21; H 1.88; F 2.42; W 2.74
K15: N 1.71; R 1.8; L 1.57; H 1.45; S 2.67; Y 2.12; F 2.2
P10: Q 2.12; G 2.45; F 2.04; C 3; S 2.91
Y20: M 2.2; P 2.93; I 1.49; K 2.6; V 2.28; D 3.29; G 2.16; T 3.05; R 2.81; E 2.02; N 2.73
S6: N 2.86; G 2.98; E 3.04; D 1.87; P 4.97; C 1.72; Q 3.79
P13: V 2.72; R 2; F 2.8; E 1.86; L 1.58; K 2.25; Y 2.13
D12: P 1.69; I 1.79; W 1.8; L 1.83; T 2.11; K 2.73; N 2.08; S 2.49; H 2.98; Q 2.19; M 2.6; E 2.15
I22: D 2.02; P 3.88; M 2.05; A 2.03; T 2.62; K 3.3
K19: H 2.03; E 2.53; R 2.6; V 1.31; Q 2.63; L 2.04
W8: R 3.54; D 3.54; Y 2.5; C 3.11; L 3.38; S 3.62; N 3.88; A 3.29
R7: N 2.38; E 3.47; T 2.66; L 1.21
W17: L 2.37; F 2.9; C 3.46; D 2.51; N 2.54; H 2.42
E14: L 2.1; I 2.68; W 1.65; A 2.66; Q 2.04; N 2.42
R23: T 1.87; F 1.85; S 2.1; V 2.27; N 2.27; I 2.21
A5: V 1.77; C 1.73; M 1.54; G 2.14; H 1.8; Y 1.5; E 1.96
Y11: H 2.35; M 2.65; P 2.71; N 2.67; E 2.37; G 3.04; A 2.51; W 2.11; K 3.01
H1: R 2.34; M 1.22; A 1.75; Y 1.69; K 1.08; S 2.04
I2: Y 2.36; R 3.2; G 3.14; L 3.1; H 2.41; P 2.15; W 2.16; K 2.48; F 2.33; C 2.74
K16: E 2.79; G 1.77; R 2.59; W 1.92; V 1.97; C 1.96; Y 1.66; T 1.81
P4: H 2.36; D 2.22; M 1.59; T 3.16; Q 1.77
